Reference: patent US20190134213A1 (Bicycle, published 2019)
Starred links: 1 amine or outer side, 2 acyl side, 3 side chain; linkers in the order of their positions; H or OH if unused. Positions of bridges follow the written chain, without caps; N, C: chain ends. Non-standard residues stand in square brackets, D forms with d. Sar10 = ten sarcosines (spacer), CN(CC(=O)N(C)CC(=O)N(C)CC(=O)N(C)CC(=O)N(C)CC(=O)[*:2])C(=O)CN(C)C(=O)CN(C)C(=O)CN(C)C(=O)CN(C)C(=O)CN(C)[*:1]; SMPP‑derived hindered disulphide linker = hindered disulphide linker derived from SMPP, with two methyl groups, carrying the toxin DM1; 1Nal = N[C@@H](Cc1cccc2ccccc12)C(=O)O; TBMB = c1c(C[*:1])cc(C[*:3])cc1C[*:2]; Tle = CC(C)(C)[C@H](N)C(=O)O; βAla = NCCC(=O)O; DM1 = toxin

B1: BT17BDC-27 (peptide)
peptide: {DM1-SMPP‑derived hindered disulphide linker}-AC[dA]NE[1Nal][dA]CEDFYD[Tle]C-NH2
modifications: linker 2-8-15 via TBMB
notes: also called Bicycle Drug Conjugate of 17-69-07-N268 with DM1
B2: BT17BDC-28 (peptide)
peptide: {DM1-SMPP‑derived hindered disulphide linker}-[βAla][Sar10]AC[dA]NE[1Nal][dA]CEDFYD[Tle]C-NH2
modifications: linker 4-10-17 via TBMB
notes: also called Bicycle Drug Conjugate of 17-69-07-N241 with DM1
B3: 17-69-07-N241 (peptide)
peptide: H-[βAla][Sar10]AC[dA]NE[1Nal][dA]CEDFYD[Tle]C-NH2
modifications: linker 4-10-17 via TBMB
SMILES: C[C@H](NC(=O)CN(C)C(=O)CN(C)C(=O)CN(C)C(=O)CN(C)C(=O)CN(C)C(=O)CN(C)C(=O)CN(C)C(=O)CN(C)C(=O)CN(C)C(=O)CN(C)C(=O)CCN)C(=O)N[C@H]1CSCc2cc3cc(c2)CSC[C@H](NC(=O)[C@@H](C)NC(=O)[C@H](Cc2cccc4ccccc24)NC(=O)[C@H](CCC(=O)O)NC(=O)[C@H](CC(N)=O)NC(=O)[C@@H](C)NC1=O)C(=O)N[C@@H](CCC(=O)O)C(=O)N[C@@H](CC(=O)O)C(=O)N[C@@H](Cc1ccccc1)C(=O)N[C@@H](Cc1ccc(O)cc1)C(=O)N[C@@H](CC(=O)O)C(=O)N[C@@H](C(C)(C)C)C(=O)N[C@H](C(N)=O)CSC3
notes: Synthetic bicyclic peptide cyclised on TBMB; precursor of BT17BDC-28; also called bAla-Sar10-A-(17-69-07) D-Ala1 1Nal4 D-Ala5 tBuGly11; (bAla)-Sar10-AC(D-Ala)NE(1Nal)(D-Ala)CEDFYD(tBuGly)C
B4: 17-69-07-N268 (peptide)
peptide: H-AC[dA]NE[1Nal][dA]CEDFYD[Tle]C-NH2
modifications: linker 2-8-15 via TBMB
SMILES: C[C@H](N)C(=O)N[C@H]1CSCc2cc3cc(c2)CSC[C@H](NC(=O)[C@@H](C)NC(=O)[C@H](Cc2cccc4ccccc24)NC(=O)[C@H](CCC(=O)O)NC(=O)[C@H](CC(N)=O)NC(=O)[C@@H](C)NC1=O)C(=O)N[C@@H](CCC(=O)O)C(=O)N[C@@H](CC(=O)O)C(=O)N[C@@H](Cc1ccccc1)C(=O)N[C@@H](Cc1ccc(O)cc1)C(=O)N[C@@H](CC(=O)O)C(=O)N[C@@H](C(C)(C)C)C(=O)N[C@H](C(N)=O)CSC3
notes: Synthetic bicyclic peptide cyclised on TBMB; lacks the bAla-Sar10 spacer of 17-69-07-N241; Precursor of BT17BDC-27; also called A-(17-69-07) D-Ala1 1Nal4 D-Ala5 tBuGly11; AC(D-Ala)NE(1Nal)(D-Ala)CEDFYD(tBuGly)C

Experiments:
[1] = target: T1, MT1-MMP hemopexin-like repeats (MT1-MMP hemopexin domain), residues Cys319-Gly511 from the human gene, … (human, UniProt P50281 319-511); test: fluorescence polarisation competition, tracer 17-69-07-N040, human MT1-MMP hemopexin domain (n = 2)
T1 construct: range 319-511; Secreted soluble protein expressed in HEK293 cells, purified by Ni-NTA and gel filtration; also called hemopexin of MT1-MMP; MMP14
From the text: (§1) Here, a pre-formed complex of PEX with the fluorescent PEX-binding tracer is titrated with free, non-fluoresceinated bicyclic peptide. Since all 17-69-based peptides are expected to bind at the same site, the titrant will displace the fluorescent tracer from PEX. Dissociation of the complex can be measured quantitatively, and the Kd of the competitor (titrant) to the target protein determined. The advantage of the competition method is that the affinities of non-fluoresceinated bicyclic peptides can be determined accurately and rapidly.
(§2) Subsequently, the non-fluorescent competitor bicyclic peptide (usually just the bicycle core sequence) is titrated, such that it displaces the fluorescent tracer from the target protein. The displacement of the tracer is measured and associated with a drop in fluorescence polarisation. The drop in fluorescence polarisation is proportional to the fraction of target protein bound with the non-fluorescent titrant, and thus is a measure of the affinity of titrant to target protein.
(§3) The raw data is fit to the analytical solution of the cubic equation that describes the equilibria between fluorescent tracer, titrant, and binding protein. The fit requires the value of the affinity of fluorescent tracer to the target protein, which can be determined separately by direct binding FP experiments (see previous section). […]

[2] = target: T1, MT1-MMP hemopexin-like repeats (MT1-MMP …); test: fluorescence polarisation competition with a fluoresceinated bicyclic tracer on MT1-MMP hemopexin domain
From the text: as §1, §2, §3

Binder	Kd [1] [nM]	Kd [2] [nM]
B1	0.69	–
B2	1.65	–
B3	–	1.21
B4	–	1.7
